In patent US20260078197A1 one finds Percentage of Positive Cells data, which are given here for one molecule.

This test has as its target Macaca fascicularis (crab-eating macaque) TFR1 expressed on CHO-S cells (Macaca fascicularis (crab-eating macaque)). As to the kind of experiment: flow cytometry on CHO-S-fasTFR1 cells; anti-hIgG-Fc Alexa Fluor 647 secondary. For orientation: A flow cytometer gives signals particle by particle.

Macaca fascicularis (crab-eating macaque) TFR1 expressed on CHO-S cells (Macaca fascicularis (crab-eating macaque)), sequence (chain, as listed by the source limits assumed): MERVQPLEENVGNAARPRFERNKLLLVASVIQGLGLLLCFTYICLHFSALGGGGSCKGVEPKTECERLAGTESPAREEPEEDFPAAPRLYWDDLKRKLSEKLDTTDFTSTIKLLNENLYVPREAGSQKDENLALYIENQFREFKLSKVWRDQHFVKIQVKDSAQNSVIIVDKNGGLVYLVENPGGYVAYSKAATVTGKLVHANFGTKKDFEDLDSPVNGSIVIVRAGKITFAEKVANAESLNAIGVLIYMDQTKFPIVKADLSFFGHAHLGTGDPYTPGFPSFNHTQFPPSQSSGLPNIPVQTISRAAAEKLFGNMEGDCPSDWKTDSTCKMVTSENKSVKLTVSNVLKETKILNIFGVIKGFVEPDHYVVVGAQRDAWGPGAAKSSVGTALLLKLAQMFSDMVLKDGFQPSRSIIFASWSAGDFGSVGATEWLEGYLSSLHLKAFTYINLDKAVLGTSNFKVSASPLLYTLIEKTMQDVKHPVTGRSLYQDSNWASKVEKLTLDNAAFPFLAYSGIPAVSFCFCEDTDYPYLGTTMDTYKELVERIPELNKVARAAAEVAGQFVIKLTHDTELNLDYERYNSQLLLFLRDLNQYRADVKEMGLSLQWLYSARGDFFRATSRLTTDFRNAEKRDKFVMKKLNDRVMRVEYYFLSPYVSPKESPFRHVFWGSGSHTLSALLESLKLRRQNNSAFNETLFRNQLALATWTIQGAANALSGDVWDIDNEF

B1: 24C9 (antibody, human IgG1, V domains shown)
VH: EVQLVQSGGGVVQPGRSLRLSCAASGFTLSSYGMYWVRQAPGKGREWVAFIRFDESKKYYADSVKGRFTISRDNSKNTLYLQMNSLRAEDTAVYYCARDGEGGYCTNGVCHGLDVWGQGTTVTVSS
With B1, the Percentage of Positive Cells is 0.35%.
